Results on two molecules are retold here after paper PMC2581641 (Molecular microbiology, 2008).

Numbering of substitutions follows the chain as printed.

Holding throughout (experiment): two-hybrid
Experiment [1] deals with T1, λCI-Rsd fusion protein with substitution G14E (E. coli, UniProt P0AFX4 1-158, G14E).
T1 sequence (looked up): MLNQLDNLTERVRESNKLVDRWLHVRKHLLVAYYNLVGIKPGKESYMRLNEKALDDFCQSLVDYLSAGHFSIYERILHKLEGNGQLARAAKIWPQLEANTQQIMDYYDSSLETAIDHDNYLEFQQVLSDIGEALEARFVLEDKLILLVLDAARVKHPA

Experiment [2] addresses T2, λCI-Rsd fusion protein with substitution Y34F (E. coli, UniProt P0AFX4 1-158, Y34F).
T2 sequence (looked up): T1 sequence (looked up) with E14G, Y34F

Experiment [3] deals with T3, λCI-Rsd fusion protein with substitutions G14E and Y34F (E. coli, UniProt P0AFX4 1-158, G14E | Y34F).
T3 sequence (looked up): T1 sequence (looked up) with Y34F

Experiment [4] deals with T4, λCI-AlgQ fusion protein (P. aeruginosa, UniProt P15275 1-160).
T4 sequence (looked up): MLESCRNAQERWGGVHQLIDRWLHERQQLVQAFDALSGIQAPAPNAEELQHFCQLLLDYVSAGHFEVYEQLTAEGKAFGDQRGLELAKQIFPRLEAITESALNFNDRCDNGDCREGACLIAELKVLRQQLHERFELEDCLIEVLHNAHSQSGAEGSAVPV

B1: α-σ^70 region 2 fusion protein (domain or fragment, E. coli, UniProt P00579 94-448, looked up)
chain: TTDPVRMYMREMGTVELLTREGEIDIAKRIEDGINQVQCSVAEYPEAITYLLEQYDRVEAEEARLSDLITGFVDPNAEEDLAPTATHVGSELSQEDLDDDEDEDEEDGDDDSADDDNSIDPELAREKFAELRAQYVVTRDTIKAKGRSHATAQEEILKLSEVFKQFRLVPKQFDYLVNSMRVMMDRVRTQERLIMKLCVEQCKMPKKNFITLFTGNETSDTWFNAAIAMNKPWSEKLHDVSEEVHRALQKLQQIEEETGLTIEQVKDINRRMSIGEAKARRAKKEMVEANLRLVISIAKKYTNRGLQFLDLIQEGNIGLMKAVDKFEYRRGYKFSTYATWWIRQAITRSIADQAR
Regarding B1, the “fold activation of lacZ transcription” value in experiment [1] was roughly 10 fold; in experiment [2], roughly 9 fold; in experiment [3], roughly 12 fold.

B2: α-Pa σ^70 region 2 fusion protein (domain or fragment, P. aeruginosa, UniProt P26480 96-450, looked up)
chain: TTDPVRMYMREMGTVELLTREGEIEIAKRIEEGIREVMSAIAQFPGTVDSILADYNRIVAEGGRLSDVLSGYIDPDDGSLPAEEVEPVNLKDDSADSKEKDDEEEESDDSSDSDDEGDGGPDPEEARLRFTAVSEQLDKAKKALKKHGRGSKQATAELTGLAELFMPIKLVPKQFDALVARVRSALEGVRAQERAIMQLCVRDARMPRADFLRLFPNHETDEKWVDSVLKSKPKYAEAIERLRDDILRNQQKLAALESEVELTVAEIKEINRAMSIGEAKARRAKKEMVEANLRLVISIAKKYTNRGLQFLDLIQEGNIGLMKAVDKFEYRRGYKFSTYATWWIRQAITRSIADQ
As for B2, the “fold activation of lacZ transcription” value in experiment [4] is roughly 14 fold.
